From patent US20020045590A1 (Johns Hopkins, published 2002)

Columns and labels:
[1] = target: T1, neuronal nitric oxide synthase (nNOS) (rat, UniProt P29476 1-1429, limits assumed); assay: GST fusion protein binding assay with rat hippocampus membrane proteins, immunoblot
T1 construct: Endogenous rat protein
Method: We utilized the yeast two-hybrid system to investigate the effects of halothane on protein interactions within the NMDA receptor signaling complex. The PDZ domain of nNOS or the C-terminus of NMDA receptor subunit 2B (NR2B) was fused in frame with the GAL4 DNA-binding domain in a yeast vector, pGBT9. […] Both yeast vectors were co-transformed into the Y190 yeast strain, which was then grown in the absence or presence of halothane at clinically relevant concentrations. Protein-protein interactions were confirmed by both yeast growth on -Leu/-Trp/-His (-LTH) medium and lacz expression. To confirm the yeast two-hybrid results, the GST fusion protein binding assay was performed. […] After extensive washing, the bound proteins were eluted by boiling in 1 X SDS-PAGE sample buffer and detected by immunoblotting.

[2] = target: T2, postsynaptic density-95 (PSD-95)/synapse-associated protein-90 (SAP90) (rat, UniProt P31016 1-724); assay: co-immunoprecipitation from rat spinal cord PSD fraction, immunoblot
T2 construct: Endogenous protein from rat spinal cord PSD fraction, pulled down by co-immunoprecipitation; also called PSD-95/SAP90
T2 sequence (P31016 whole entry): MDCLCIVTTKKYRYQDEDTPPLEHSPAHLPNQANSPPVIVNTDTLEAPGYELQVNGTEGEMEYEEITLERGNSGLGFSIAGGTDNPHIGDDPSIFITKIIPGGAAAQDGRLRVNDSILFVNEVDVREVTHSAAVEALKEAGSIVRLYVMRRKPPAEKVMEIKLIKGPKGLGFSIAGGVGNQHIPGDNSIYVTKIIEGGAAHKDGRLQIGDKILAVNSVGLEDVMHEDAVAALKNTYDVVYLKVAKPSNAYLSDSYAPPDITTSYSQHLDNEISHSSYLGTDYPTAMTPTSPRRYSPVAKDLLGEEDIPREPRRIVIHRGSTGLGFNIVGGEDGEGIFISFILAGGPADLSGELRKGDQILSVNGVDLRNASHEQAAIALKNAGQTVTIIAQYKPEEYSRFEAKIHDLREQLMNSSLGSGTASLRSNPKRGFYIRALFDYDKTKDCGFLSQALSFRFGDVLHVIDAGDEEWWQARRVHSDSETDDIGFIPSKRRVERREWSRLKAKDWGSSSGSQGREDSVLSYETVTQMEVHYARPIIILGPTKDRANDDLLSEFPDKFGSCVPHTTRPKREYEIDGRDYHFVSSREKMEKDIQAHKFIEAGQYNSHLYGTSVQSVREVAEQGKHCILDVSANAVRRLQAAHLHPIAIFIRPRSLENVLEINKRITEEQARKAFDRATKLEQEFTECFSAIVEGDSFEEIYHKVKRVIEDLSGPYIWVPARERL

T1 sequence (P29476 whole entry, the tested form may be a part): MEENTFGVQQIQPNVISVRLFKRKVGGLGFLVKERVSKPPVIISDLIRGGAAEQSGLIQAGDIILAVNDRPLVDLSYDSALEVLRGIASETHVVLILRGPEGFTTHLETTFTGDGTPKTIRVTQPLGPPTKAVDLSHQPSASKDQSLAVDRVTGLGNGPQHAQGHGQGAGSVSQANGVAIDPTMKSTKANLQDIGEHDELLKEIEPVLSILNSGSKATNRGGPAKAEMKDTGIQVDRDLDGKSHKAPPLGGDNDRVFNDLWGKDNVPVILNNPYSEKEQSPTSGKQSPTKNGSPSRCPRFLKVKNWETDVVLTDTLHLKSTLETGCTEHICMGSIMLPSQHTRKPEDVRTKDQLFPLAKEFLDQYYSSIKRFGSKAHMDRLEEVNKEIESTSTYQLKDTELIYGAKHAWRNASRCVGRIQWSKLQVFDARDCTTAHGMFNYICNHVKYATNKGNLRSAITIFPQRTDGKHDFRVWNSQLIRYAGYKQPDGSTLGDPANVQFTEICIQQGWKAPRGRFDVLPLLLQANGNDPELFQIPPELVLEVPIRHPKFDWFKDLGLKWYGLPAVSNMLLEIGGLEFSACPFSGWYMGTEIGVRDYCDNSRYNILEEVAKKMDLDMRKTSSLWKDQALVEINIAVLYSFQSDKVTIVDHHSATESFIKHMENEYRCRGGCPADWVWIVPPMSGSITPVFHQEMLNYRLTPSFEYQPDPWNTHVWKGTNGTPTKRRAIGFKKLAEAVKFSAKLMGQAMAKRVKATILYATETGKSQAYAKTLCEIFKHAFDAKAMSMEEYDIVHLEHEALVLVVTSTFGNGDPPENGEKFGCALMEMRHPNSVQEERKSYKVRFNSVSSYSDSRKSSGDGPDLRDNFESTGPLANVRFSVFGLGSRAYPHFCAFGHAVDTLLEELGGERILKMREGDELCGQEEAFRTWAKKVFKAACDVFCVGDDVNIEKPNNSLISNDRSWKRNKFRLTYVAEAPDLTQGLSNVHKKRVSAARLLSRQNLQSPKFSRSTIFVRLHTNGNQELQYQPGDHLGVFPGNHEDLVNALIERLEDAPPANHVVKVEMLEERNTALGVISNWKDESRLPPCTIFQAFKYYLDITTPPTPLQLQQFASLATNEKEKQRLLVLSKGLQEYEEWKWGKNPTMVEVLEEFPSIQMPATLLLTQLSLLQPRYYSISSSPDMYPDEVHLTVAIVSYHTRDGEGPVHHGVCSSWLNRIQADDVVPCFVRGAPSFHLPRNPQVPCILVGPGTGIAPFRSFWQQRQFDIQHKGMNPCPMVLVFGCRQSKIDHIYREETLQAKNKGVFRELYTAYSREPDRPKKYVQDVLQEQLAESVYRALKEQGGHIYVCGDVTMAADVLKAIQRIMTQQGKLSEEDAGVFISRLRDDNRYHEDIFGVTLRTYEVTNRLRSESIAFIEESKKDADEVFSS

B1: GST-fusion protein consisting of the second PDZ domain of PSD-95 (other, UniProt P31016 160-246, looked up)
chain: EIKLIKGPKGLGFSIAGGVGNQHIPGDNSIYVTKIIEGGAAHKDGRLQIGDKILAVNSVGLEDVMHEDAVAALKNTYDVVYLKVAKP
notes: domain: second PDZ domain; Expressed in bacterial BL21 cells, purified on glutathione-coupled agarose; also called GST-PSD-95; GST-fusion PSD-95; not shown: glutathione S-transferase (GST) tag
B1: binds [1].

B2: GST-fusion protein consisting of the second PDZ domain of PSD-93 (other, UniProt Q63622 193-279, looked up)
chain: EIKLFKGPKGLGFSIAGGVGNQHIPGDNSIYVTKIIDGGAAQKDGRLQVGDRLLMVNNYSLEEVTHEEAVAILKNTSDVVYLKVGKP
notes: domain: second PDZ domain; Expressed in bacterial BL21 cells, purified on glutathione-coupled agarose; also called GST-PSD-93; GST-fusion PSD-93; not shown: glutathione S-transferase (GST) tag
B2: binds [1].

B3: endothelial NOS (eNOS) (enzyme, rat, UniProt Q62600 2-1202, looked up)
chain: GNLKSVGQEPGPPCGLGLGLGLGLCGKQGPASPAPEPSQAPVPPSPTRPAPDHSPPLTRPPDGPKFPRVKNWEVGSITYDTLSAQAQQDGPCTPRRCLGSLVFPRKLQSRPTQGPSPTEQLLGQARDFINQYYNSIKRSGSQAHEQRLQEVEAEVVATGTYQLRESELVFGAKQAWRNAPRCVGRIQWGKLQVFDARDCRTAQEMFTYICNHIKYATNRGNLRSAITVFPQRYAGRGDFRIWNSQLVRYAGYRQQDGSVRGDPANVEITELCIQHGWTPGNGRFDVLPLLLQAPDEPPELFTLPPELVLEVPLEHPTLEWFAALGLRWYALPAVSNMLLEIGGLEFPAAPFSGWYMSSEIGMRDLCDPHRYNILEDVAVCMDLDTRTTSSLWKDKAAVEINVAVLYSYQLAKVTIVDHHAATASFMKHLENEQKARGGCPADWAWIVPPISGSLTPVFHQEMVNYFLSPAFRYQPDPWKGSAAKGTGITRKKTFKEVANAVKISASLMGTVMAKRVKATILYGSETGRAQSYAQQLGRLFRKAFDPRVLCMDEYDVVSLEHEALVLVVTSTFGNGDPPENGESFAAALMEMSGPYNSSPRPEQHKSYKIRFNSVSCSDPLVSSWRRKRKESSNTDSAGALGTLRFCVFGLGSRAYPHFCAFARAVDTRLEELGGERLLQLGQGDELCGQEEAFRGWAQAAFQAACETFCVGEDAKAAARDIFSPKRSWKRQRYRLSTQAESLQLLPRLTHVHRRKMFQATILSVENLQSSKSTRATILVRLDTGSQEGLQYQPGDHIGVCPPNRPGLVEALLSRVEDPPPSTEPVAVEQLEKGSPGGPPPGWVRDPRLPPCTLRQALTYFLDITSPPSPRLLRLLSTLAEESSEQQELEALSQDPRRYEEWKWFRCPTLLEVLEQFPSVALPAPLILTQLPLLQPRYYSVSSAPSAHPGEIHLTVAVLAYRTQDGLGPLHYGVCSTWMSQLKAGDPVPCFIRGAPSFRLPPDPNLPCILVGPGTGIAPFRGFWQDRLHDIEIKGLQPAPMTLVFGCRCSQLDHLYRDEVLDAQQRGVFGQVLTAFSRDPGSPKTYVQDLLRTELAAEVHRVLCLEQGHMFVCGDVTMATSVLQTVQRILATEGSMELDEAGDVIGVLRDQQRYHEDIFGLTLRTQEVTSRIRTQSFSLQERQLRGAVPWSFDPPTQETPGS
notes: Endogenous rat protein
B3: no binding [2].
